According to patent US7981423B2, “Rage fusion proteins” (Transtech Pharma, Inc., priority 2004, dated 2011):

What was measured:
[1] = cited from earlier work
[2] = normal and diabetic rats; retention of immunoreactivity sRAGE; cited from earlier work
[3] = target: T1, amyloid-beta (Abeta) (Homo sapiens, UniProt P05067); experiment: In vitro ligand binding ELISA, immobilized amyloid-beta; details: various dilutions of fusion protein; FIG. 7
T1 construct: Amyloid Beta (1-40) from Biosource; purchased Biosource
Experimental: (§1) For example, the RAGE fusion protein may be used in a binding assay to identify potential RAGE ligands. In one example embodiment of such a binding assay, a known RAGE ligand may coated onto a solid substrate (e.g., Maxisorb plates) at a concentration of about 5 micrograms per well, where each well contains a total volume of about 100 microliters (μL). The plates may be incubated at 4° C. overnight to allow the ligand to absorb. Alternatively, shorter incubation periods at higher temperature (e.g., room temperature) may be used. […] The fusion protein bound to the immobilized ligand may be detected in a variety of ways. […] The bound complex may be detected by adding the alkaline phosphatase substrate, para-nitrophenylphosphate (PNPP), and measuring conversion of PNPP to para-nitrophenol (PNP) as an increase in absorbance at 405 nm. […] Binding was detected by the addition of an immunodetection complex containing a monoclonal mouse anti-human IgG1 diluted 1:11,000 to a final assay concentration (FAC) of 21 ng/100 μL, a biotinylated goat anti-mouse IgG diluted 1:500, to a FAC of […], and an avidin-linked alkaline phosphatase. […] Binding of the complex to the immobilized fusion protein was quantified by measuring conversion of PNPP to para-nitrophenol (PNP) which was-measured spectrophotornetrically at 405 nm. […]

[4] = target: T2, S100b (S100) (Homo sapiens, UniProt P04271); experiment: In vitro ligand binding ELISA, immobilized S100b; details: various dilutions of fusion protein; FIG. 7
T2 sequence (P04271 1-92): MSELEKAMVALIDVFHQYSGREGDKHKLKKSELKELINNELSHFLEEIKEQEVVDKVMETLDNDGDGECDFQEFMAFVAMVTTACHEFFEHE
Experimental: as §1

[5] = target: T3, amphoterin (Ampho) (Homo sapiens, UniProt P09429); experiment: In vitro ligand binding ELISA, immobilized amphoterin; details: various dilutions of fusion protein; FIG. 7
T3 sequence (P09429 1-215): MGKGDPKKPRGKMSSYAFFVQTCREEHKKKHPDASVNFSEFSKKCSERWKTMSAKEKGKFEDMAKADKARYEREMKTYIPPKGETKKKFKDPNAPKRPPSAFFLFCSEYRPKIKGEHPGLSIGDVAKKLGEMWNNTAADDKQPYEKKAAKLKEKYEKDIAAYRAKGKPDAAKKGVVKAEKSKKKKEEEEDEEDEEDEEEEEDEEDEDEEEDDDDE
Experimental: as §1

[6] = tested on: APP transgenic mice; experiment: Mouse model of AD (APP transgenic mice); type: in vivo; details: treated for 3 months, versus vehicle and human IgG1
Experimental: Experiments were performed to evaluate whether TTP-4000 could affect amyloid formation and cognitive dysfunction in a mouse model of AD. The experiments utilized transgenic mice expressing the human Swedish mutant amyloid precursor protein (APP) under the control of the PDGF-B chain promoter. Over time, these mice generate high levels of the RAGE ligand, amyloid beta (Aβ).
The APP mice (male) used in this experiment were designed by microinjection of the human APP gene (with the Swedish and London mutations) into mouse eggs under the control of the platelet-derived growth factor B (PDGF-B) chain gene promoter. The mice were generated on a C57BL/6 background and were developed by Molecular Therapeutics Inc. Animals were fed ad libituin and maintained by brother sister mating. The mice generated from this construct develop amyloid deposits starting at 6 months of age. Animals were aged for 6 months and then maintained for 90 days and sacrificed for amyloid quantification.
APP transgenic mice were administered vehicle or TTP4000 every other day [qod (i.p.)] for 90 days starting at 6 months of age. At the end of the experiment, animals were sacrificed and examined for AP plaque burden in the brain (i.e., plaque number). A 6-month control APP group was used to determine the baseline of amyloid deposits. In addition, at the end of the study, the animals were subjected to behavioral (Morris water maze) analysis. The investigators were blinded to the study compounds. Samples were given to the mice at 0.25 ml/mouse/every other day.
For histological examination, the animals were anesthetized with an intraperitoneal injection (IP) of sodium pentobarbital (50 mg/kg). The animals were transcardially perfused with 4° C., phosphate-buffered saline (PBS) followed by 4% paraformaldehyde. The brains were removed and placed in 4% paraformaldehyde over night. The brains were processed to paraffin and embedded. Ten serial 30-μm thick sections through the brain were obtained. Sections were subjected to primary antibody overnight at 4° C. (Aβ peptide antibody) in order to detect the amyloid deposits in the brain of the transgenic animals (Guo et al., J. Neurosci., 22:5900-5909 (2002)). Sections were washed in Tris-buffered saline (TBS) and secondary antibody was added and incubated for 1 hour at room temperature. After washing, the sections were incubated as instructed in the Vector ABC Elite kit (Vector Laboratories) and stained with […] (DAB). The reactions were stopped in water and cover-slipped after treatment with xylene. The amyloid area in each section was determined with a computer-assisted image analysis system, consisting of a Power Macintosh computer equipped with a Quick Capture frame grabber card, Hitachi CCD camera mounted on an Olympus microscope and camera stand. NIH Image Analysis Software, v. 1.55 was used. The images were captured and the total area of amyloid was determined over the ten sections. A single operator blinded to treatment status performed all measurements. Summing the amyloid volumes of the sections and dividing by the total number of sections was done to calculate the amyloid volume.
For quantitative analysis, an enzyme-linked immunosorbent assay (ELISA) was used to measure the levels of human total Aβ, Aβtotal and Aβ1-42 in the brains of APP transgenic mice (Biosource International., Camarillo, Calif.). Aβtotal and Aβ1-42 were extracted from mouse brains by guanidine hydrochloride and quantified as described by the manufacturer. […]

T1 sequence (P05067 672-711 limits assumed): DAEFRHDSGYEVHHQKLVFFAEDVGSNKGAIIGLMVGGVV

sRAGE: soluble RAGE: the RAGE protein that does not include the transmembrane region or the cytoplasmic tail [reference compound]
half-life in plasma [1]: only a few hours

human sRAGE: human soluble RAGE (e.g., SEQ ID NO: 4) [reference compound]
half-life [2]: less than 2 hours | half-life in plasma [1]: about 2 hours

B1: rodent sRAGE: rodent soluble RAGE (protein, UniProt Q62151 23-340, looked up)
extracellular domain: GQNITARIGEPLVLSCKGAPKKPPQQLEWKLNTGRTEAWKVLSPQGGPWDSVARILPNGSLLLPATGIVDEGTFRCRATNRRGKEVKSNYRVRVYQIPGKPEIVDPASELTASVPNKVGTCVSEGSYPAGTLSWHLDGKLLIPDGKETLVKEETRRHPETGLFTLRSELTVIPTQGGTHPTFSCSFSLGLPRRRPLNTAPIQLRVREPGPPEGIQLLVEPEGGIVAPGGTVTLTCAISAQPPPQVHWIKDGAPLPLAPSPVLLLPEVGHEDEGTYSCVATHPSHGPQESPPVSIRVTETGDEGPAEGSVGESGLGTLA
modifications: extracellular domain
notes: rodent soluble RAGE
half-life [2]: approximately 20 hours

B2: TTP-3000: three domain RAGE fusion protein (SEQ ID NO: 35): human RAGE amino acids 1-136 linked to CH2 and CH3 domains of human IgG (protein)
chain: MAAGTAVGAWVLVLSLWGAVVGAQNITARIGEPLVLKCKGAPKKPPQRLEWKLNTGRTEAWKVLSPQGGGPWDSVARVLPNGSLFLPAVGIQDEGIFRCQAMNRNGKETKSNYRVRVYQIPGKPEIVDSASELTAGPSVFLFPPKPKDTLMISRTPEVTCVVVDVSHEDPEVKFNWYVDGVEVHNAKTKPREEQYNSTYRVVSVLTVLHQDWLNGKEYKCKVSNKALPAPIEKTISKAKGQPREPQVYTLPPSRDELTKNQVSLTCLVKGFYPSDIAVEWESNGQPENNYKTTPPVLDSDGSFFLYSKLTVDKSRWQQGNVFSCSVMHEALHNHYTQKSLSLSPGK
binding to immobilized amyloid-beta (absorbance at 405 nm) [3]: specifically interact | binding to immobilized S100b (absorbance at 405 nm) [4]: specifically interact | binding to immobilized amphoterin (absorbance at 405 nm) [5]: specifically interact

B3: mouse sRAGE: mouse soluble RAGE used as comparator in the AD mouse model (protein, UniProt Q62151 23-340, looked up)
extracellular domain: GQNITARIGEPLVLSCKGAPKKPPQQLEWKLNTGRTEAWKVLSPQGGPWDSVARILPNGSLLLPATGIVDEGTFRCRATNRRGKEVKSNYRVRVYQIPGKPEIVDPASELTASVPNKVGTCVSEGSYPAGTLSWHLDGKLLIPDGKETLVKEETRRHPETGLFTLRSELTVIPTQGGTHPTFSCSFSLGLPRRRPLNTAPIQLRVREPGPPEGIQLLVEPEGGIVAPGGTVTLTCAISAQPPPQVHWIKDGAPLPLAPSPVLLLPEVGHEDEGTYSCVATHPSHGPQESPPVSIRVTETGDEGPAEGSVGESGLGTLA
modifications: extracellular domain
notes: mouse soluble RAGE used as comparator in the AD mouse model
Aβ plaques in the brain ([6]; FIG. 14A): fewer Aβ plaques | cognitive dysfunction (Morris water maze) ([6]; FIG. 14B): less cognitive dysfunction
